Measured values taken from publication PMC9701220, “Molecular basis for glycan recognition and reaction priming of eukaryotic oligosaccharyltransferase” (Nature Communications, 2022).
The star is where a group is joined. 5‑TAMRA = CN(C)c1ccc2c(-c3ccc(C(=O)*)cc3C(=O)[O-])c3ccc(N(C)C)cc3[o+]c2c1

Key:
Settings in all cases: both partners purified
[1] = target: T1, WBP1, subunit of S. cerevisiae OST (S. cerevisiae, UniProt P33767 21-430); experiment: cryo-EM structure; nanodisc-reconstituted OST 2.5 uM incubated with 7.5 uM Dol20-PP-GlcNAc2Man9Glc3 and 500 uM TAMRA-YA(Dab)ATS peptide for 15 min before vitrification; MnCl2 present; the sample gave two states, LLO-bound (3.0 A) and ternary complex (3.1 A)
T1 construct: WBP1, non-catalytic subunit of S. cerevisiae OST; Stood in the assay within the whole OST complex; also called WPB1; source: S. cerevisiae, as a subunit of the purified OST complex (Rho-1D4 antibody Sepharose through OST4-1D4, SEC)
T1 sequence (looked up): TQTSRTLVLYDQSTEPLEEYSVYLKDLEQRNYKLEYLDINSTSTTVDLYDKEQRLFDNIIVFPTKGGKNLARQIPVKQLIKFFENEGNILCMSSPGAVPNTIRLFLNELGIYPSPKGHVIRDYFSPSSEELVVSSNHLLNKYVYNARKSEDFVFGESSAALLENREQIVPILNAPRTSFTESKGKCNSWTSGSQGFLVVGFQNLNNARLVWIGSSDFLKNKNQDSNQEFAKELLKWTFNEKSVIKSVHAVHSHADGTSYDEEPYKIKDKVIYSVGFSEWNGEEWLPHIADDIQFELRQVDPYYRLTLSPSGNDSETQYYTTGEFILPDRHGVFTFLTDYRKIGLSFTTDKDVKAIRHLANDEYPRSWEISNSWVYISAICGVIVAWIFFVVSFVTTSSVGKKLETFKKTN

[2] = target: T2, S. cerevisiae oligosaccharyltransferase (OST) complex, OST3-containing (S. cerevisiae, UniProt P39007 1-718; P41543 23-476; Q92316 1-86; P48439 23-350; Q99380 1-36; P46964 …); experiment: cryo-EM structure; digitonin-purified OST 18 uM incubated with 500 uM TAMRA-YANATS peptide for 15 min before vitrification, no LLO; the sample gave two states, peptide-bound (2.8 A) and apo (2.9 A)
T2 construct: STT3, catalytic subunit of S. cerevisiae OST; OST1, subunit of S. cerevisiae OST (subcomplex I); OST5, subunit of S. cerevisiae OST (subcomplex I); OST3, oxidoreductase subunit of S. cerevisiae OST (subcomplex II); expressed from the plasmid YEp352-OST3 in an ost6 deletion strain; OST4, subunit of S. cerevisiae OST (subcomplex II); genomic OST4-1D4; OST2, subunit of S. cerevisiae OST (subcomplex …)

[3] = target: T3, STT3, catalytic subunit of S. cerevisiae OST (S. cerevisiae, UniProt P39007 1-718); experiment: cryo-EM structure; nanodisc-reconstituted OST 2.5 uM incubated with 7.5 uM Dol20-PP-GlcNAc2Man9Glc3 and 500 uM TAMRA-YA(Dab)ATS peptide for 15 min before vitrification; MnCl2 present; the sample gave two states, LLO-bound (3.0 A) and ternary complex (3.1 A)
T3 construct: STT3, catalytic subunit of S. cerevisiae OST; Stood in the assay within the whole OST complex; also called S.c; STT3; source: S. cerevisiae, as a subunit of the purified OST complex (Rho-1D4 antibody Sepharose through OST4-1D4, SEC)
T3 sequence: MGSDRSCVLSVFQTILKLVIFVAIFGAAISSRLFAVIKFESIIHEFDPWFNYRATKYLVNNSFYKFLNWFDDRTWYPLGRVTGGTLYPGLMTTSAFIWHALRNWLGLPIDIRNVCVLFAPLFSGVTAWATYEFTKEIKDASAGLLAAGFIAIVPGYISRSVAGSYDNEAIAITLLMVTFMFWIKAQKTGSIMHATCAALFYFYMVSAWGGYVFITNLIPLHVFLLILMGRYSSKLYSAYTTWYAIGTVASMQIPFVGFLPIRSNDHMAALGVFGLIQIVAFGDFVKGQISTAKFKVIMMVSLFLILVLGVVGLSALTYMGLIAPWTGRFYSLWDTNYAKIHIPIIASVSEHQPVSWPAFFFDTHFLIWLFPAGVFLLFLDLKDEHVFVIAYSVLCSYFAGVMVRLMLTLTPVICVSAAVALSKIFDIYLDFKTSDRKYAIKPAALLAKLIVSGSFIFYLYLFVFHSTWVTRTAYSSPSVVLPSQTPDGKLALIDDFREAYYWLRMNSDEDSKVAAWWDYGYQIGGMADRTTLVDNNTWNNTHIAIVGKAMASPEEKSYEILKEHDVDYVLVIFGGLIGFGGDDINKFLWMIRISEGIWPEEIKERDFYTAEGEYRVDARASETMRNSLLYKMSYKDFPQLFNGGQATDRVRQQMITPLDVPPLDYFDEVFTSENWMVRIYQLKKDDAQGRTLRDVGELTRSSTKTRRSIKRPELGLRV

T2 sequence (P41543 23-476, chain 2 of 4): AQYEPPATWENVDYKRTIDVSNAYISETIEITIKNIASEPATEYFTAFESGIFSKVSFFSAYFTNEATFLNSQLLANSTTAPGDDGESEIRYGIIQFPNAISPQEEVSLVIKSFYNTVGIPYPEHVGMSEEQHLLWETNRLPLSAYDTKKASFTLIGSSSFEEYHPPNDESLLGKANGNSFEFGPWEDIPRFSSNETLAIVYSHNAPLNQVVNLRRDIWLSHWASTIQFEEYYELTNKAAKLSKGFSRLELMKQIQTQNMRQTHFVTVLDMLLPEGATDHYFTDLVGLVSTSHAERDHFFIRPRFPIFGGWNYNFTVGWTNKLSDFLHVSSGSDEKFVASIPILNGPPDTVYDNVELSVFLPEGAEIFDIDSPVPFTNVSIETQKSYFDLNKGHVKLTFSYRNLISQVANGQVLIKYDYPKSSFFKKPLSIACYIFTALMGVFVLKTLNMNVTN
T2 sequence (Q92316 whole entry, chain 3 of 4): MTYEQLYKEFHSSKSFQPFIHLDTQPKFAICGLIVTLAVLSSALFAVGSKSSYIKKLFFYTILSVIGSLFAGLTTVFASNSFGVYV
T2 sequence (Q99380 whole entry, chain 5 of 4): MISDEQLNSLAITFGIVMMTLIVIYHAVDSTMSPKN
T2 sequence (Q02795 20-286, chain 8 of 4, further chain): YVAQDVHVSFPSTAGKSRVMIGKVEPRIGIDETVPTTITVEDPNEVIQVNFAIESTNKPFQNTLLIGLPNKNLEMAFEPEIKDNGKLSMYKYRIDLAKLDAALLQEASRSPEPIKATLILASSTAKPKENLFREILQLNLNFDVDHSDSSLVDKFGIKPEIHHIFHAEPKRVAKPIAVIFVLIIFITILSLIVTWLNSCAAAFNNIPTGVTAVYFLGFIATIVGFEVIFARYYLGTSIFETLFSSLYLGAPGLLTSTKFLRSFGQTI

B1: OST2, subunit of S. cerevisiae OST (natural protein)
chain: MAKAPKANTPKVTSTSSAVLTDFQETFKTSKRAYFAQIEKYPKLKLIDTFCFFLVLLGVIQCTFIILIRDNFPFNAFLAGFIICVGQFVLLMSLRLQLCNSFPGISKNRAFAEFIVASLILHFVCLHFIN
notes: OST2, non-catalytic subunit of S. cerevisiae OST; Stood in the assay within the whole OST complex; source: S. cerevisiae, as a subunit of the purified OST complex (Rho-1D4 antibody Sepharose through OST4-1D4, SEC)
- binding result [1]: binds

B2: TAMRA-YANATS-NH2 (peptide)
peptide: {5‑TAMRA}-YANATS-NH2
SMILES: C[C@H](NC(=O)[C@H](Cc1ccc(O)cc1)NC(=O)c1ccc(-c2c3ccc(N(C)C)cc3[o+]c3cc(N(C)C)ccc23)c(C(=O)[O-])c1)C(=O)N[C@@H](CC(N)=O)C(=O)N[C@@H](C)C(=O)N[C@H](C(=O)N[C@@H](CO)C(N)=O)[C@@H](C)O
notes: acceptor substrate of OST; also called 5-TAMRA-YANATS; reactive peptide; source: bought: Genscript
- binding result [2]: binds

B3: OST3, subunit of S. cerevisiae OST (natural protein, UniProt P48439 23-350, looked up)
chain: MSSNRLLKLANKSPKKIIPLKDSSFENILAPPHENAYIVALFTATAPEIGCSLCLELESEYDTIVASWFDDHPDAKSSNSDTSIFFTKVNLEDPSKTIPKAFQFFQLNNVPRLFIFKPNSPSILDHSVISISTDTGSERMKQIIQAIKQFSQVNDFSLHLPMDWTPIITSTIITFITVLLFKKQSKLMFSIISSRIIWATLSTFFIICMISAYMFNQIRNTQLAGVGPKGEVMYFLPNEFQHQFAIETQVMVLIYGTLAALVVVLVKGIQFLRSHLYPETKKAYFIDAILASFCALFIYVFFAALTTVFTIKSPAYPFPLLRLSAPFK
notes: OST3, oxidoreductase subunit of S. cerevisiae OST; Stood in the assay within the whole OST complex; source: S. cerevisiae (YEp352-OST3), as a subunit of the purified OST complex (Rho-1D4 antibody Sepharose through OST4-1D4, SEC)
- binding result [3]: binds
